Reference: paper PMC10397247
Read-outs that look alike come from different tables or passages of the source.

How the values were obtained:
4H967-bA = target: T1, 4H967-bA; test: two-hybrid library CCNG1;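 also: natural log of median RNA to DNA barcode read ratio; higher means stronger binding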
T1 chain: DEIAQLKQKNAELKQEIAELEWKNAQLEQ

4H568-bA = target: T2, 4H568-bA; test: two-hybrid library CCNG1;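 also: natural log of median RNA to DNA barcode read ratio; higher means stronger binding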
T2 chain: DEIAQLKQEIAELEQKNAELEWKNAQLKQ

4H687-bA = target: T3, 4H687-bA; test: two-hybrid library CCNG1;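 also: natural log of median RNA to DNA barcode read ratio; higher means stronger binding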
T3 chain: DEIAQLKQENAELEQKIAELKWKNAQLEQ

4H331-bA = target: T4, 4H331-bA; test: two-hybrid library CCNG1;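 also: natural log of median RNA to DNA barcode read ratio; higher means stronger binding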
T4 chain: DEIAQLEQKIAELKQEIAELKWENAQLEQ

4H953-bA = target: T5, 4H953-bA; test: two-hybrid library CCNG1;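 also: natural log of median RNA to DNA barcode read ratio; higher means stronger binding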
T5 chain: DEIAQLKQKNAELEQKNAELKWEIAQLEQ

4H607-bA = target: T6, 4H607-bA; test: two-hybrid library CCNG1;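 also: natural log of median RNA to DNA barcode read ratio; higher means stronger binding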
T6 chain: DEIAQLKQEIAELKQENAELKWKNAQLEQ

4H3606-bA = target: T7, 4H3606-bA; test: two-hybrid library CCNG1
T7 chain: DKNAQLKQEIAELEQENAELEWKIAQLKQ

4H918-bA = target: T8, 4H918-bA; test: two-hybrid library CCNG1
T8 chain: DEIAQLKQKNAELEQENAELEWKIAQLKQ

4H3189-bA = target: T9, 4H3189-bA; test: two-hybrid library CCNG1
T9 chain: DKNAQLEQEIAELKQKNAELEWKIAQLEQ

4H797-bA = target: T10, 4H797-bA; test: two-hybrid library CCNG1
T10 chain: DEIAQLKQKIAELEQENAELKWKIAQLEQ

4H4001-bA = target: T11, 4H4001-bA; test: two-hybrid library CCNG1
T11 chain: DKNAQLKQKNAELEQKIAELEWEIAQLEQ

4H370-bA = target: T12, 4H370-bA; test: two-hybrid library CCNG1
T12 chain: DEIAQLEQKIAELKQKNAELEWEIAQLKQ

4H883-bA = target: T13, 4H883-bA; test: two-hybrid library CCNG1
T13 chain: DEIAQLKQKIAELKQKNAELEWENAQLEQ

4H3843-bA = target: T14, 4H3843-bA; test: two-hybrid library CCNG1
T14 chain: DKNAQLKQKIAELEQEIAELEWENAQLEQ

4H72-bA = target: T15, 4H72-bA; test: two-hybrid library CCNG1
T15 chain: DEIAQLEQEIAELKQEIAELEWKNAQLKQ

4H3782-bA = target: T16, 4H3782-bA; test: two-hybrid library CCNG1
T16 chain: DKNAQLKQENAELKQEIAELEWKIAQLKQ

4H462-bA = target: T17, 4H462-bA; test: two-hybrid library CCNG1
T17 chain: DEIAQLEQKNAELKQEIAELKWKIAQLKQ

P6-AA-1HGe-A = target: T18, P6-AA-1HGe-A; test: two-hybrid library CCmax; conditions: mean of both orientations
T18 chain: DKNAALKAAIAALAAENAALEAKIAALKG

P6-AA-1HGe-M = target: T19, P6-AA-1HGe-M; test: two-hybrid library CCmax; conditions: mean of both orientations
T19 chain: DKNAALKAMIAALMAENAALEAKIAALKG

P6-AA-1HGe-R = target: T20, P6-AA-1HGe-R; test: two-hybrid library CCmax; conditions: mean of both orientations
T20 chain: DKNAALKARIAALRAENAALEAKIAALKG

P6-AA-1HGe-W = target: T21, P6-AA-1HGe-W; test: two-hybrid library CCmax; conditions: mean of both orientations
T21 chain: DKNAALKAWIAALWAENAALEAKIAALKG

P6-AA-1HGe-S = target: T22, P6-AA-1HGe-S; test: two-hybrid library CCmax; conditions: mean of both orientations
T22 chain: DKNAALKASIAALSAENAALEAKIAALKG

P6-AA-1HGe-T = target: T23, P6-AA-1HGe-T; test: two-hybrid library CCmax; conditions: mean of both orientations
T23 chain: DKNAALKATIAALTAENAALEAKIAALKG

| Binder | interaction score (4H967-bA) | interaction score (4H568-bA) | interaction score (4H687-bA) | interaction score (4H953-bA) | interaction score (4H607-bA) | interaction score (4H918-bA) | interaction score (4H797-bA) | interaction score (4H4001-bA) | interaction score (4H370-bA) | interaction score (4H883-bA) | interaction score (4H3843-bA) | interaction score (4H72-bA) | interaction score (4H3782-bA) | interaction score (4H462-bA) | also measured |
| --- | --- | --- | --- | --- | --- | --- | --- | --- | --- | --- | --- | --- | --- | --- | --- |
| DKNAQLEQEIAELKQKNAELEWKIAQLEQ [4H3189-bA] | -1.1 | -1.19 | -0.444 | -1.34 | -1.11 | -1.44 | -1.42 | -0.765 | -0.547 | -1.22 | -1.24 | -1.18 | -0.906 | -1.62 | interaction score (4H331-bA): -1.26; interaction score (4H3606-bA): -0.875; interaction score (4H3189-bA): 0.465 |
| DENAALEAHIAALHAKNAALKAEIAALEG [P5-AA-1HGe-H] | – | – | – | – | – | – | – | – | – | – | – | – | – | – | interaction score (P6-AA-1HGe-A): 1.88; interaction score (P6-AA-1HGe-M): 1.95; interaction score (P6-AA-1HGe-R): 1.63; interaction score (P6-AA-1HGe-W): 0.42; interaction score (P6-AA-1HGe-S): 1.02; interaction score (P6-AA-1HGe-T): 1.88 |
| DKNAQLKQEIAELEQENAELEWKIAQLKQ [4H3606-bA] | 0.947 | -0.435 | -0.711 | 0.309 | -0.936 | -0.427 | -1.09 | -0.523 | 1.25 | 0.708 | -0.812 | -2.04 | 0.289 | -1.18 | interaction score (4H3606-bA; mean of both orientations): -0.112 |
